Reference: doi:10.1101/2023.11.26.568766 (bioRxiv, 2023)

Target: the molecule itself
Assay: crystal structure

B1: XccOpgD (D379N), OpgD from Xanthomonas campestris pv. campestris (enzyme)
chain: AKAVGLRRLGQPQPFDYAWLKGQARALAKAPYKSHKQVLPGPLESLNWDQYQSIRYRQDHALWADGNGKFQAKFFHLGLYFHTPVHIYDIVDGKAQQLAYDPAAFDYGRSGLGGKQLPKDLGFAGFRLNTRKDTDRDFSAFLGASYFRAVGKEGQYGQSARGLAIDTGTGGPEEFPDFIAYYLEQPADDSDTVVVYGLLDSPSVSGAYRFAITNGEVLVMDIDSALYPRKAIERLGIGPCTSMYQTGENDRRMDWDWRPEIHDTDGLAMWTGGGEWIWRPLCNPPHLRFNMFVDENPRGFGLLQRDRNFDHYQDDGVFYEKRPCLWVEPKSGWGKGSVQLVEIPTVDETFNNIVAFWNPQAKPQPGQELLMGYRLYWGAHPPASSPLAHCVATRTGLGGIVGQKRSHFSWRFAVDFAGGELAALAKDPKAKVEAVLQVSRGTTEIVSARPLHELKGYRAMFDLVPPDEGTQQIDIRLFLRANGKPLTETWLYQWTPPPASERKIY
B1: binds.
